Consider one molecule from publication PMC7066533 (Frontiers in Pharmacology, 2020).

Assay [1] addresses T1, human kappa opioid receptor (human, UniProt P41145 1-380).
T1 construct: human kappa opioid receptor, stably expressed in HEK-293 cells; Functional rows in U87-MG cells and normal human astrocytes (endogenous human KOPr) are also written on this molecule; also called hKOPr; KOPr
As to the kind of experiment: radioligand binding; displacement of 2.5 nM [3H]DAMGO (MOPr), 2 nM [3H]diprenorphine (DOPr) or 1 nM [3H]U69,593 (KOPr) from membranes of receptor-expressing HEK-293 cells; 25°C, 90 min, 100 mM Tris-HCl, 0.3% BSA; competitor 10^-12 to 10^-4 M; Ki from IC50 by Cheng-Prusoff. The following applies: one partner purified.

The target in assay [2] is T2, human delta opioid receptor (human, UniProt P41143 1-372).
T2 construct: human delta opioid receptor, stably expressed in HEK-293 cells; membrane preparations used; also called hDOPr; DOPr; source: HEK-293 cells stably expressing hDOPr, cell membranes
The assay is described as above. The settings on record: one partner purified.

For assay [3], the target named is T3, human mu opioid receptor (human, UniProt P35372 1-400).
T3 construct: human mu opioid receptor, stably expressed in HEK-293 cells; membrane preparations used; also called hMOPr; MOPr; source: HEK-293 cells stably expressing hMOPr, cell membranes
Described as above. The settings on record: one partner purified.

For assay [4], the target named is T1, human kappa opioid receptor. In words: cell-based or functional assay.

Usually Ki stands for the dissociation constant of the complex between target and ligand, obtained from inhibition or displacement. Low values mean higher affinity, high ones lower affinity.

Square brackets hold non-standard residues; d marks the D form. βAla = NCCC(=O)O Some results are limits rather than exact numbers.

For the molecule cyclo(FG[βAla][dW]) (SMILES O=C1CNC(=O)[C@H](Cc2ccccc2)NC(=O)[C@@H](Cc2c[nH]c3ccccc23)NC(=O)CCN1) [LOR17 (c[Phe-Gly-(β-Ala)-D-Trp])], the Ki was 1.19 nM in assay [1], greater than 100000 nM in assay [2] and greater than 100000 nM in assay [3]. Moreover, the “IC50 of inhibition of forskolin-induced cAMP accumulation, HEK-293/KOR cells” value in assay [4] came to 2.8 nM. Besides, in assay [4], the “IC50 of inhibition of forskolin-induced cAMP accumulation, U87-MG cells (endogenous KOPr)” value was found to be 3.1 nM. Further, the “IC50 of inhibition of forskolin-induced cAMP accumulation, normal human astrocytes (endogenous KOPr)” value in assay [4] stood at 3 nM.
